Experimental data: patent publication US20230203146A1 (Boehringer Ingelheim, published 2023)
Numbering of substitutions follows the chain as printed. Where two headings read alike, the source gives them in different places.

Experiments:
[1] = molecular target: T1, N-terminally FLAG-tagged cynomolgus Ang2 (HEK293T conditioned medium) (cynomolgus, UniProt O15123 19-496 (human entry), limits assumed); assay: competition ELISA, FLAG-cAng2 on coated cTie2-Fc
T1 construct: may be a nucleotide entry; also called cAng2; FLAG-cAng2
T1 chain: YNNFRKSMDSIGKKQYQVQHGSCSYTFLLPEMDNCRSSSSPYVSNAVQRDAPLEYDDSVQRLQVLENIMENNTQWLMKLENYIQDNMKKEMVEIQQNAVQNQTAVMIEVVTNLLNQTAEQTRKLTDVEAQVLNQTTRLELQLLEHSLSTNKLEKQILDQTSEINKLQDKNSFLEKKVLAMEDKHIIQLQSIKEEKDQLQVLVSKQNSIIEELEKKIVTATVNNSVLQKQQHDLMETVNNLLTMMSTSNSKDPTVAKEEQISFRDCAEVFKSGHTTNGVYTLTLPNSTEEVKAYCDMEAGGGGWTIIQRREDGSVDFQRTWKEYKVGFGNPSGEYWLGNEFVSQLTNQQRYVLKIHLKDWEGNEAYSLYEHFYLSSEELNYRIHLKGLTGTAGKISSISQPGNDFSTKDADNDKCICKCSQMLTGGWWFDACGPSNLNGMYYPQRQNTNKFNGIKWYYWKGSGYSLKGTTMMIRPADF
Procedure: (§1) In brief, 2 μg/mL of recombinant mouse Tie2-Fc or cyno Tie2-Fc is coated overnight at 4° C. in a 96-well MaxiSorp plate (Nunc, Wiesbaden, Germany). Coated wells are blocked with a 1% casein solution.

[2] = molecular target: T2, N-terminally FLAG-tagged mouse Ang2 (HEK293T conditioned medium) (mouse, UniProt O35608 19-496); assay: competition ELISA, FLAG-mAng2 on coated mTie2-Fc
T2 construct: may be a nucleotide entry; also called mAng2; FLAG-mAng2
T2 sequence: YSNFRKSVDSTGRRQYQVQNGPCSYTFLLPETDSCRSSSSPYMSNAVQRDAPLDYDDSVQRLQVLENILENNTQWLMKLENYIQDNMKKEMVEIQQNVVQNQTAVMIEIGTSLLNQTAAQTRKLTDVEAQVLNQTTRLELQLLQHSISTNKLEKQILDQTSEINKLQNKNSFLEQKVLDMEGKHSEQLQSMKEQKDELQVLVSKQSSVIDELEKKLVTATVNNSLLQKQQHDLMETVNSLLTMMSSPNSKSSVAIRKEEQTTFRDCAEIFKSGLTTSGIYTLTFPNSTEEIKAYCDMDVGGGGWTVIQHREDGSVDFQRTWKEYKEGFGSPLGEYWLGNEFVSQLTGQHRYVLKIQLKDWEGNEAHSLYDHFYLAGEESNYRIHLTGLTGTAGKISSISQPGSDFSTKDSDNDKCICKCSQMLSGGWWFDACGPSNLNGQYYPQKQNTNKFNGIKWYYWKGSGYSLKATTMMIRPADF
Procedure: as §1

[3] = molecular target: T3, FLAG-tagged recombinant human Ang1 (Alexis Biochemicals) (human, UniProt Q15389 20-498, limits assumed); assay: ratio of IC50 in hAng1/hTie2 ELISA to IC50 in hAng2/hTie2 ELISA
T3 construct: Bought reagent; also called hAng1; FLAG-hAng1
T3 sequence (looked up): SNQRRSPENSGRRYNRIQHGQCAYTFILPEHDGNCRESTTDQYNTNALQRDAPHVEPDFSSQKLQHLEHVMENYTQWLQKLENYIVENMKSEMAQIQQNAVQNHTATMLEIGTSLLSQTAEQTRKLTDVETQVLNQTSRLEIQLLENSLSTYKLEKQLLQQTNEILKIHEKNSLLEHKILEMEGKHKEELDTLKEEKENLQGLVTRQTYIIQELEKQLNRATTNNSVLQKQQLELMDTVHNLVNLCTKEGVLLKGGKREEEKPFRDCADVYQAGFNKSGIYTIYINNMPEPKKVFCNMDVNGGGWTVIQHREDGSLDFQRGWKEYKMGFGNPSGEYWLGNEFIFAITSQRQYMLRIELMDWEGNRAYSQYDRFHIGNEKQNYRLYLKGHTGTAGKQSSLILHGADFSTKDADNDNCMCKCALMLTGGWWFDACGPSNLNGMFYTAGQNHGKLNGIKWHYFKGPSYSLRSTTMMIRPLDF
Procedure: In brief, 2 μg/mL of Tie2/Fc chimera (R&D Systems, Minneapolis, Minn., USA) is coated in a 96-well MaxiSorp plate (Nunc, Wiesbaden, Germany).
In brief, 2 μg/mL of recombinant human Tie2-Fc (R&D Systems, Minneapolis, Minn., USA) is coated overnight at 4° C. in a 96-well MaxiSorp plate (Nunc, Wiesbaden, Germany). Coated wells are blocked with a 1% casein solution.

[4] = molecular target: T2, N-terminally FLAG-tagged mouse Ang2 …; assay: competition ELISA, FLAG-mAng2 on coated mTie2-Fc; remark: listed apart in the source
Procedure: as §1

[5] = molecular target: T4, recombinant mouse Ang2-FLD (mouse, UniProt O35608 275-496, limits assumed); assay: SPR (Biacore T100), binder on CM5 chip, Ang2-FLD as analyte
T4 construct: domain: FLD
T4 sequence (looked up): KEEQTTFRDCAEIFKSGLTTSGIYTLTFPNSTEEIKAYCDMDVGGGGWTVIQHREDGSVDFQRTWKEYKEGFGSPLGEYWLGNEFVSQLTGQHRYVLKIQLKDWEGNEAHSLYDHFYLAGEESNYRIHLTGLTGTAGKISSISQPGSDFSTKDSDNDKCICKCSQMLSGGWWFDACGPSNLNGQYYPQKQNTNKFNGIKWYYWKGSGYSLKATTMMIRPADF
Procedure: (§2) In brief, VHH and benchmark compounds are immobilized on a CM5 chip via amine coupling. […] Ang2-FLD species are allowed to associate for 2 min and to dissociate for 20 min at a flow rate of 45 μL/min. In between injections, the surfaces are regenerated with a 10 sec pulse of 25 mM NaOH and 60 sec stabilization period. Association/dissociation data are evaluated by fitting a 1:1 interaction model (Langmuir binding). The affinity constant KD is calculated from resulting association and dissociation rate constants kₐ and kd and are depicted in Table 8.

[6] = molecular target: T5, recombinant human Ang2-FLD (human, UniProt O15123 275-496, limits assumed); assay: as above
T5 construct: domain: FLD; not used
T5 sequence (looked up): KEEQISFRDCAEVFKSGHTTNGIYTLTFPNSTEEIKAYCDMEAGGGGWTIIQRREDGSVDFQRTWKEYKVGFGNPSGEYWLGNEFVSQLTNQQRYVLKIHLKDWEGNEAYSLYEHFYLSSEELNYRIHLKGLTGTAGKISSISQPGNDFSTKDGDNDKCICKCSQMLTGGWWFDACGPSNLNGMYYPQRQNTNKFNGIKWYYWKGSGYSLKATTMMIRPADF
Procedure: as §2

[7] = molecular target: T6, recombinant cynomolgus Ang2-FLD (cynomolgus); assay: as above
T6 construct: domain: FLD; also called cyno Ang2-FLD
Procedure: as §2

[8] = molecular target: T7, recombinant cynomolgus Ang2-FLD (cynomolgus, UniProt A0A2K5VNX6 275-496); assay: SPR (Biacore T100), VHH immobilized, Ang2-FLD injected
T7 construct: domain: FLD; also called cyno Ang2-FLD
T7 sequence: T5 sequence (looked up) with E2G, I23V, F28L, I35V, G154A, A212G, D221G
Procedure: as §2

recombinant rat Ang2-FLD = molecular target: T8, recombinant rat Ang2-FLD (rat, UniProt O35462 275-496, limits assumed); assay: as above
T8 construct: domain: FLD
T8 sequence (looked up): T4 sequence (looked up) with Q4K, I35V, V43M, G91S, Q92G, N107S, D114E, A119S, S168T
Procedure: as §2

[9] = molecular target: T9, recombinant mouse Ang2-FLD (mouse, UniProt O35608 275-496, limits assumed); assay: as above
T9 construct: domain: FLD
T9 sequence (looked up): T4 sequence (looked up)
Procedure: as §2

[10] = molecular target: T10, recombinant human Ang2-FLD (human, UniProt O15123 275-496, limits assumed); assay: as above
T10 construct: domain: FLD
T10 sequence (looked up): T5 sequence (looked up)
Procedure: as §2

[11] = molecular target: T11, FLAG-tagged cynomolgus Ang2 (cynomolgus, UniProt O15123 19-496 (human entry), limits assumed); assay: competition ELISA: FLAG-cAng2 binding to coated cTie2-Fc
T11 construct: N-terminally FLAG-tagged, conditioned medium of HEK293T cells; also called cAng2; FLAG-cAng2
T11 chain: T1 chain
Procedure: as §1

FLAG-tagged mouse Ang2 [12] = molecular target: T12, FLAG-tagged mouse Ang2 (mouse, UniProt O35608 19-496); assay: competition ELISA: FLAG-mAng2 binding to coated mTie2-Fc
T12 construct: N-terminally FLAG-tagged, conditioned medium of HEK293T cells; also called mAng2; FLAG-mAng2
T12 sequence: T2 sequence
Procedure: as §1

[13] = molecular target: T11, FLAG-tagged cynomolgus Ang2; assay: competition ELISA: FLAG-cAng2 binding to coated cTie2-Fc
Procedure: as §1

FLAG-tagged mouse Ang2 [14] = molecular target: T12, FLAG-tagged mouse Ang2; assay: competition ELISA: FLAG-mAng2 binding to coated mTie2-Fc; remark: listed apart in the source
Procedure: as §1

B1: VHH 7G08 (VHH)
VHH: EVQLVESGGGLVQPGGSLRLSCAASGFALDYYAIGWFRQVPGKEREGVSCISSSDGITYYVDSVKGRFTISRDNAKNTVYLQMNSLKPEDTAVYYCATDSGGYIDYDCMGLGYDYWGQGTQVTVSS
notes: also called 007G08; not shown: C-terminal c-myc tag and His6 tag
For B1, the IC50 [1] was 0.14 nM, the IC50 [2] was 0.07 nM and the hAng1/hAng2 ratio [3] was greater than 2.33e+06. The IC50 [4] was 0.09 nM, the Kd [5] was 0.18 nM and the koff [5] was 0.00014 s⁻¹. For the same binder, the kon [5] was 810000 M⁻¹ s⁻¹, the Kd [6] was 0.097 nM and the koff [6] was 0.0001 s⁻¹. The kon [6] was 1e+06 M⁻¹ s⁻¹, the Kd [7] was 0.072 nM and the koff [7] was 0.00011 s⁻¹. It also gave a kon [7] of 1.5e+06 M⁻¹ s⁻¹.

B2: VHH 00928 (VHH, not shown: small tags and cut ends)
VHH: B1 VHH with V40A, D55G, V61A, A75S, K87R, M109S, Q121L
With B2 the Kd [8] was 0.05 nM, the koff [8] was 4.9e-05 s⁻¹ and the kon [8] was 970000 M⁻¹ s⁻¹. It also gave a Kd (recombinant rat Ang2-FLD) of 0.29 nM, a koff (recombinant rat Ang2-FLD) of 5.4e-05 s⁻¹ and a kon (recombinant rat Ang2-FLD) of 180000 M⁻¹ s⁻¹. It also gave a Kd [9] of 0.17 nM, a koff [9] of 7.3e-05 s⁻¹ and a kon [9] of 420000 M⁻¹ s⁻¹. It also gave a Kd [10] of 0.064 nM, a koff [10] of 4e-05 s⁻¹ and a kon [10] of 620000 M⁻¹ s⁻¹. For the same binder, the IC50 [11] was 0.39 nM and the IC50 (FLAG-tagged mouse Ang2 [12]) was 0.2 nM.

B3: VHH 37F02 (VHH)
VHH: B1 VHH with V40A
notes: also called 037F02; not shown: C-terminal c-myc tag and His6 tag
With B3 the IC50 [1] was 0.1 nM, the IC50 [2] was 0.09 nM and the hAng1/hAng2 ratio [3] was greater than 100000.

B4: VHH 37A09 (VHH)
VHH: B1 VHH with V5M, E89G
notes: also called 037A09; not shown: C-terminal c-myc tag and His6 tag
Work on B4 yielded an IC50 [1] of 0.2 nM, an IC50 [2] of 0.1 nM and a hAng1/hAng2 ratio [3] greater than 100000.

B5: VHH 1D01 (VHH)
VHH: EVQLVESGGGLVQAGGSLRLSCAASGFTFDDYALGWFRQAAGKEREGVSCIRCSDGSTYYADSVKGRFTISSDNAKNTVYLQMNSLKPEDTAVYYCAASIVPRSKLEPYEYDAWGQGTQVTVSS
notes: also called 001D01; not shown: C-terminal c-myc tag and His6 tag
For B5, the IC50 [1] was 16.4 nM, the IC50 [2] was 10 nM and the hAng1/hAng2 ratio [3] was greater than 10800. It also gave an IC50 [4] of 6.3 nM, a Kd [5] of 4.6 nM and a koff [5] of 0.015 s⁻¹. The kon [5] was 3.3e+06 M⁻¹ s⁻¹, the Kd [6] was 2 nM and the koff [6] was 0.015 s⁻¹. It also gave a kon [6] of 7.7e+06 M⁻¹ s⁻¹, a Kd [7] of 1.4 nM and a koff [7] of 0.014 s⁻¹. It also gave a kon [7] of 9.9e+06 M⁻¹ s⁻¹.

B6: VHH 00921 (VHH, not shown: small tags and cut ends)
VHH: B5 VHH with A14P, A41P, D55G, A75S, K87R, Q119L
For B6, the Kd [8] was 2.3 nM, the koff [8] was 0.025 s⁻¹ and the kon [8] was 1.1e+07 M⁻¹ s⁻¹. For the same binder, the Kd (recombinant rat Ang2-FLD) was 42 nM, the koff (recombinant rat Ang2-FLD) was 0.049 s⁻¹ and the kon (recombinant rat Ang2-FLD) was 1.2e+06 M⁻¹ s⁻¹. It also gave a Kd [9] of 7.5 nM, a koff [9] of 0.025 s⁻¹ and a kon [9] of 3.3e+06 M⁻¹ s⁻¹. It also gave a Kd [10] of 6.6 nM, a koff [10] of 0.027 s⁻¹ and a kon [10] of 4e+06 M⁻¹ s⁻¹. The IC50 [13] was 37 nM and the IC50 (FLAG-tagged mouse Ang2 [14]) was 27 nM.
